± gives the standard deviation of the averaged measurements.
Assay: total protein half-life in vivo (active degradation + dilution); higher = more stable protein
[1] = E. coli NCM3722 delta-clpP delta-lon delta-hslV, growth: N-lim chemostat, doubling time 6 h
[2] = E. coli NCM3722 delta-hslV, growth: N-lim chemostat, doubling time 6 h
[3] = E. coli NCM3722 delta-lon, growth: N-lim chemostat, doubling time 6 h
[4] = E. coli NCM3722 delta-smpB, growth: N-lim chemostat, doubling time 6 h
[5] = wild type E. coli NCM3722, growth: C-lim chemostat, doubling time 3 h
[6] = wild type E. coli NCM3722, growth: C-lim chemostat, doubling time 6 h
[7] = wild type E. coli NCM3722, growth: C-lim chemostat, doubling time 12 h
[8] = wild type E. coli NCM3722, growth: N-lim chemostat, doubling time 6 h
[9] = wild type E. coli NCM3722, growth: N-lim chemostat, doubling time 12 h
[10] = wild type E. coli NCM3722, growth: P-lim chemostat, doubling time 6 h
[11] = wild type E. coli NCM3722, growth: P-lim chemostat, doubling time 12 h
[12] = E. coli NCM3722 delta-clpP, growth: N-lim chemostat, doubling time 6 h

## MSLVCSVIFIHHAFNANILDKDYAFSDGEILMVDNAVRTHFEPYERHFKEIGFTENTIKKYLQCTNIQTVTVPVPAKFLRASNVPTGLLNEMIAYLNSEERNHHNFSELLLFSCLSIFAACKGFITLLTNGVLSVSGKVRNIVNMKPAHPWKLKDICDCLYISESLLKKKLKQEQTTFSQILLDARMQHAKNLIRVEGSVNKIAEQCGYASTSYFIYAFRKHFGNSPKRVSKEYRCQSHTGMNTGNTMNALAI
[1]
  total protein half-life in vivo: 4.92 h

## MKKLLPILIGLSLSGFSSLSQAENLMQVYQQARLSNPELRKSAADRDAAFEKINEARSPLLPQLGLGADYTYSNGYRDANGINSNATSASLQLTQSIFDMSKWRALTLQEKAAGIQDVTYQTDQQTLILNTATAYFNVLNAIDVLSYTQAQKEAIYRQLDQTTQRFNVGLVAITDVQNARAQYDTVLANEVTARNNLDNAVEQLRQITGNYYPELAALNVENFKTDKPQPVNALLKEAEKRNLSLLQARLSQDLAREQIRQAQDGHLPTLDLTASTGISDTSYSGSKTRGAAGTQYDDSNMGQNKVGLSFSLPIYQGGMVNSQVKQAQYNFVGASEQLESAHRSVVQTVRSSFNNINASISSINAYKQAVVSAQSSLDAMEAGYSVGTRTIVDVLDATTTLYNAKQELANARYNYLINQLNIKSALGTLNEQDLLALNNALSKPVSTNPENVAPQTPEQNAIADGYAPDSPAPVVQQTSARTTTSNGHNPFRN
[1]
  total protein half-life in vivo: 6.4 ± 0.68 h
[2]
  total protein half-life in vivo: 7.27 ± 0.62 h
[3]
  total protein half-life in vivo: 6.96 ± 0.25 h
[4]
  total protein half-life in vivo: 6.09 ± 0.28 h
[5]
  total protein half-life in vivo: 3.15 ± 0.091 h
[6]
  total protein half-life in vivo: 6.46 ± 0.065 h
[7]
  total protein half-life in vivo: 12.5 ± 0.56 h
[8]
  total protein half-life in vivo: 5.95 ± 0.79 h
[9]
  total protein half-life in vivo: 13.3 ± 0.99 h
[10]
  total protein half-life in vivo: 5.09 ± 0.13 h
[11]
  total protein half-life in vivo: 10.7 ± 0.21 h

## MADITLISGSTLGGAEYVAEHLAEKLEEAGFTTETLHGPLLEDLPASGIWLVISSTHGAGDIPDNLSPFYEALQEQKPDLSAVRFGAIGIGSREYDTFCGAIDKLEAELKNSGAKQTGETLKINILDHDIPEDPAEEWLGSWVNLLK
[1]
  total protein half-life in vivo: 3.22 ± 0.1 h
[12]
  total protein half-life in vivo: 2.99 h
[2]
  total protein half-life in vivo: 2.93 ± 0.18 h
[3]
  total protein half-life in vivo: 3.47 ± 0.17 h
[4]
  total protein half-life in vivo: 2.78 ± 0.15 h
[5]
  total protein half-life in vivo: 2.86 ± 0.48 h
[6]
  total protein half-life in vivo: 4.66 ± 0.56 h
[7]
  total protein half-life in vivo: 9.28 ± 2 h
[8]
  total protein half-life in vivo: 2.67 ± 0.13 h
[9]
  total protein half-life in vivo: 3.68 ± 0.24 h
[10]
  total protein half-life in vivo: 5.07 ± 0.09 h
[11]
  total protein half-life in vivo: 9.52 ± 0.099 h

## MRLFIAEKPSLARAIADVLPKPHRKGDGFIECGNGQVVTWCIGHLLEQAQPDAYDSRYARWNLADLPIVPEKWQLQPRPSVTKQLNVIKRFLHEASEIVHAGDPDREGQLLVDEVLDYLQLAPEKRQQVQRCLINDLNPQAVERAIDRLRSNSEFVPLCVSALARARADWLYGINMTRAYTILGRNAGYQGVLSVGRVQTPVLGLVVRRDEEIENFVAKDFFEVKAHIVTPADERFTAIWQPSEACEPYQDEEGRLLHRPLAEHVVNRISGQPAIVTSYNDKRESESAPLPFSLSALQIEAAKRFGLSAQNVLDICQKLYETHKLITYPRSDCRYLPEEHFAGRHAVMNAISVHAPDLLPQPVVDPDIRNRCWDDKKVDAHHAIIPTARSSAINLTENEAKVYNLIARQYLMQFCPDAVFRKCVIELDIAKGKFVAKARFLAEAGWRTLLGSKERDEENDGTPLPVVAKGDELLCEKGEVVERQTQPPRHFTDATLLSAMTGIARFVQDKDLKKILRATDGLGTEATRAGIIELLFKRGFLTKKGRYIHSTDAGKALFHSLPEMATRPDMTAHWESVLTQISEKQCRYQDFMQPLVGTLYQLIDQAKRTPVRQFRGIVAPGSGGSADKKKAAPRKRSAKKSPPADEVGSGAIA
[1]
  total protein half-life in vivo: 5.31 ± 0.35 h
[12]
  total protein half-life in vivo: 2.48 ± 0.14 h
[2]
  total protein half-life in vivo: 1.843 ± 0.0066 h
[3]
  total protein half-life in vivo: 4.39 ± 0.75 h
[4]
  total protein half-life in vivo: 1.97 ± 0.14 h
[5]
  total protein half-life in vivo: 1.65 ± 0.098 h
[6]
  total protein half-life in vivo: 3.12 ± 0.038 h
[7]
  total protein half-life in vivo: 3.27 ± 0.57 h
[8]
  total protein half-life in vivo: 2.32 ± 0.17 h
[9]
  total protein half-life in vivo: 3.255 ± 0.0094 h
[10]
  total protein half-life in vivo: 2.23 ± 0.41 h
[11]
  total protein half-life in vivo: 4.46 ± 1.1 h

## MKKLTIGLIGNPNSGKTTLFNQLTGSRQRVGNWAGVTVERKEGQFSTTDHQVTLVDLPGTYSLTTISSQTSLDEQIACHYILSGDADLLINVVDASNLERNLYLTLQLLELGIPCIVALNMLDIAEKQNIRIEIDALSARLGCPVIPLVSTRGRGIEALKLAIDRYKANENVELVHYAQPLLNEADSLAKVMPSDIPLKQRRWLGLQMLEGDIYSRAYAGEASQHLDAALARLRNEMDDPALHIADARYQCIAAICDVVSNTLTAEPSRFTTAVDKIVLNRFLGLPIFLFVMYLMFLLAINIGGALQPLFDVGSVALFVHGIQWIGYTLHFPDWLTIFLAQGLGGGINTVLPLVPQIGMMYLFLSFLEDSGYMARAAFVMDRLMQALGLPGKSFVPLIVGFGCNVPSVMGARTLDAPRERLMTIMMAPFMSCGARLAIFAVFAAAFFGQNGALAVFSLYMLGIVMAVLTGLMLKYTIMRGEATPFVMELPVYHVPHVKSLIIQTWQRLKGFVLRAGKVIIIVSIFLSAFNSFSLSGKIVDNINDSALASVSRVITPVFKPIGVHEDNWQATVGLFTGAMAKEVVVGTLNTLYTAENIQDEEFNPAEFNLGEELFSAIDETWQSLKDTFSLSVLMNPIEASKGDGEMGTGAMGVMDQKFGSAAAAYSYLIFVLLYVPCISVMGAIARESSRGWMGFSILWGLNIAYSLATLFYQVASYSQHPTYSLVCILAVILFNIVVIGLLRRARSRVDIELLATRKSVSSCCAASTTGDCH
[2]
  total protein half-life in vivo: 0.616 h
[4]
  total protein half-life in vivo: 0.941 ± 0.47 h
[5]
  total protein half-life in vivo: 0.812 ± 0.12 h
[6]
  total protein half-life in vivo: 0.749 h
[7]
  total protein half-life in vivo: 1.58 ± 0.19 h
[8]
  total protein half-life in vivo: 0.841 h
[11]
  total protein half-life in vivo: 4.22 h

## MKSRAAVAFAPGKPLEIVEIDVAPPKKGEVLIKVTHTGVCHTDAFTLSGDDPEGVFPVVLGHEGAGVVVEVGEGVTSVKPGDHVIPLYTAECGECEFCRSGKTNLCVAVRETQGKGLMPDGTTRFSYNGQPLYHYMGCSTFSEYTVVAEVSLAKINPEANHEHVCLLGCGVTTGIGAVHNTAKVQPGDSVAVFGLGAIGLAVVQGARQAKAGRIIAIDTNPKKFDLARRFGATDCINPNDYDKPIKDVLLDINKWGIDHTFECIGNVNVMRAALESAHRGWGQSVIIGVAVAGQEISTRPFQLVTGRVWKGSAFGGVKGRSQLPGMVEDAMKGDIDLEPFVTHTMSLDEINDAFDLMHEGKSIRTVIRY
[1]
  total protein half-life in vivo: 5.33 ± 0.98 h
[12]
  total protein half-life in vivo: 4.73 ± 0.68 h
[2]
  total protein half-life in vivo: 4.43 ± 0.28 h
[3]
  total protein half-life in vivo: 4.95 ± 0.45 h
[4]
  total protein half-life in vivo: 4.24 ± 0.45 h
[5]
  total protein half-life in vivo: 2.68 ± 0.26 h
[6]
  total protein half-life in vivo: 5.87 ± 0.69 h
[7]
  total protein half-life in vivo: 10.1 ± 1 h
[8]
  total protein half-life in vivo: 4.1 ± 0.47 h
[9]
  total protein half-life in vivo: 6.819 ± 0.021 h
[10]
  total protein half-life in vivo: 5.6 ± 0.19 h
[11]
  total protein half-life in vivo: 11.4 ± 0.52 h

## MTTFHSLTVAKVESETRDAVTITFAVPQPLQEAYRFRPGQHLTLKASFDGEELRRCYSICRSYLPGEISVAVKAIEGGRFSRYAREHIRQGMTLEVMVPQGHFGYQPQAERQGRYLAIAAGSGITPMLAIIATTLQTEPESQFTLIYGNRTSQSMMFRQALADLKDKYPQRLQLLCIFSQETLDSDLLHGRIDGEKLQSLGASLINFRLYDEAFICGPAAMMDDAETALKALGMPDKTIHLERFNTPGTRVKRSVNVQSDGQKVTVRQDGRDREIVLNADDESILDAALRQGADLPYACKGGVCATCKCKVLRGKVAMETNYSLEPDELAAGYVLSCQALPLTSDVVVDFDAKGMA
[1]
  total protein half-life in vivo: 4.66 ± 0.67 h
